The target in assay [1] is T1, p185^HER2 ECD (secreted form of the extracellular domain of p185^HER2) (human, UniProt P04626 23-652).
T1 construct: extracellular domain; also called HER2 extracellular domain
Kind of assay: ratio of Kd values, solution equilibrium/ELISA. For orientation: An ELISA detects its analyte on a solid surface through an enzyme-linked reagent.

Assay [2] deals with T1, p185^HER2 ECD (secreted form of the …). Kind of assay: solution equilibrium with p185HER2 ECD, free antibody by ELISA on immobilized ECD (Friguet method).
The target in assay [3] is p185^HER2 on cells (SK-BR-3 human breast tumor cells; WI-38 cells) (human, UniProt P04626 23-1255). Description: cell-based or functional assay.

B1: huMAb4D5-2 (antibody, name in Kabat numbering, V domains shown)
VH: EVQLVESGGGLVQPGGSLRLSCAASGFNIKDTYIHWVRQAPGKGLEWVARIYPTNGYTRYADSVKGRFTISADDSKNTLYLQMNSLRAEDTAVYYCARWGGDGFYAMDVWGQGTLVTVSS
VL: not shown
As for B1, the “fold increase in affinity over huMAb4D5-1” value in assay [1] worked out at 5 fold. In addition, binding in assay [2] was characterised by a dissociation constant (Kd) of 4.7 nM. For the same molecule, the “Relative cell proliferation of SK-BR-3 cells, 96 hr, 8 ug/ml antibody” value in assay [3] is 101 % of untreated control.
